The record followed here is paper doi:10.1101/2023.07.21.550003 (bioRxiv, 2023).

In this test the target is T1, canonical HER2, extracellular region (residues 22-587) (human, UniProt P04626).
T1 construct: HER2 (ERBB2), human, extracellular region spanning residues 22-587, amplified from the complete cDNA clone BC156755 / P04626; Cloned in a modified p3XFLAG-CMV-25 vector; also called ERBB2; human epidermal growth factor receptor 2; source: HEK293F, transfected, purified from supernatant (HisTrap, Superdex200); not shown: FLAG, N-terminal, kept
Kind of test: flow cytometry on cells; yeast clones displaying scFv (anti-c-myc-FITC for display) incubated with purified Flag-tagged HER2 variants at room temperature for 2 hours; anti-Flag iFluor 647. As to conditions: one partner purified. In general terms: A flow cytometer gives signals particle by particle.

B1: Clone 32 (scFv displayed on yeast) (scFv, V domains shown)
VH: EVQLVESGGGLVQPGGSLRLSCAASGFTFGEYTMDWVRQAPGKGLEWVADVNPNSGGSIYNKRFKGRFTLSVDRSKNTLYLQMNSLRAEDTAVYYCARNLGPSFYFDYWGQGTLVTVSS
VL: DIQMTQSPSSLSASVGDRVTITCKASQDVSIGVAWYQQKPGKAPKLLIYSASYRYTGVPSRFSGSGSGTDFTLTISSLQPEDFATYYCQQYYIYPYTFGQGTKVEIK
notes: as the heavy-chain variable region of m4 (Pertuzumab, PDB 1S78), with the changes of clone 32 among the 14 library positions; linker: three repeats of G4S between the VH and VL; as the light-chain variable region of m4 (Pertuzumab, PDB 1S78); The methods also say the library was built 'based on the AAL160 template antibody'; source: S. cerevisiae EBY100, yeast surface display (pCTCON2)
For the molecule B1, the binding result is “binds”.
